Data reported in the supplement of paper PMC10567573.

B1: RAD51 (parent)
chain: APKKELINIKGISEAKADKILAEA
B2: TMEM192 (parent)
chain: LWILHLLLECYIQYHHSKIRNRGY

Variants of: B1
Test: protein stability index of a GFP-peptide fusion (GPS, HEK-293T) (PSI 1-6); higher = more stable
Details: c terminus: a fixed tail appended
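Note: lentivirally expressed fusions sorted by FACS into six bins by GFP to DsRed ratio, PSI derived from sequencing read proportions per bin multiplied by bin number.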

Variant	protein stability index
APKKELINIKGISEAKADKILAHA	3.85
APKKELINIKGISEAKADKILAIA	3.36
APKKELINIKGISEAKADKILAKA	4.46
APKKELINIKGISEAKADKILALA	3.43
APKKELINIKGISEAKADKILAMA	3.72
APKKELINIKGISEAKADKILANA	4.58
APKKELINIKGISEAKADKILAPA	4.34
APKKELINIKGISEAKADKILAQA	4.26
APKKELINIKGISEAKADKILARA	3.85
APKKELINIKGISEAKADKILASA	3.79
APKKELINIKGISEAKADKILATA	4.13
APKKELINIKGISEAKADKILAVA	3.73
APKKELINIKGISEAKADKILAWA	3.02
APKKELINIKGISEAKADKILAYA	3.37
APKKELINIKGISEAKADKILAEC	4.51
APKKELINIKGISEAKADKILAED	4.83
APKKELINIKGISEAKADKILAEE	3.9

Variant	protein stability index
APKKELINIKGISEAKADKILAEF	3.53
APKKELINIKGISEAKADKILAEG	4.9
APKKELINIKGISEAKADKILAEH	4.76
APKKELINIKGISEAKADKILAEI	3.61
APKKELINIKGISEAKADKILAEK	5.26
APKKELINIKGISEAKADKILAEL	4.4
APKKELINIKGISEAKADKILAEM	4.34
APKKELINIKGISEAKADKILAEN	4.96
APKKELINIKGISEAKADKILAEP	4.91
APKKELINIKGISEAKADKILAEQ	5.1
APKKELINIKGISEAKADKILAER	4.83
APKKELINIKGISEAKADKILAES	4.75
APKKELINIKGISEAKADKILAET	5.36
APKKELINIKGISEAKADKILAEV	4.26
APKKELINIKGISEAKADKILAEW	3.97
APKKELINIKGISEAKADKILAEY	3.76

Variants of: B2
Test: as above
Details: c terminus: a fixed tail appended

Variant	protein stability index
AWILHLLLECYIQYHHSKIRNRGY	3.09
CWILHLLLECYIQYHHSKIRNRGY	2.89
DWILHLLLECYIQYHHSKIRNRGY	3
EWILHLLLECYIQYHHSKIRNRGY	3.02
GWILHLLLECYIQYHHSKIRNRGY	3.04
HWILHLLLECYIQYHHSKIRNRGY	4.56
IWILHLLLECYIQYHHSKIRNRGY	2.1
KWILHLLLECYIQYHHSKIRNRGY	2.06
MWILHLLLECYIQYHHSKIRNRGY	1.48
QWILHLLLECYIQYHHSKIRNRGY	3.9
TWILHLLLECYIQYHHSKIRNRGY	3.75
VWILHLLLECYIQYHHSKIRNRGY	2.17
YWILHLLLECYIQYHHSKIRNRGY	2.72
LAILHLLLECYIQYHHSKIRNRGY	2.2
LDILHLLLECYIQYHHSKIRNRGY	1.88
LEILHLLLECYIQYHHSKIRNRGY	1.73
LFILHLLLECYIQYHHSKIRNRGY	3.58
LGILHLLLECYIQYHHSKIRNRGY	2.73
LHILHLLLECYIQYHHSKIRNRGY	2.14
LKILHLLLECYIQYHHSKIRNRGY	1.94
LMILHLLLECYIQYHHSKIRNRGY	2.41

Variant	protein stability index
LNILHLLLECYIQYHHSKIRNRGY	2.28
LPILHLLLECYIQYHHSKIRNRGY	1.23
LQILHLLLECYIQYHHSKIRNRGY	2.66
LRILHLLLECYIQYHHSKIRNRGY	1.63
LSILHLLLECYIQYHHSKIRNRGY	1.58
LTILHLLLECYIQYHHSKIRNRGY	1.86
LVILHLLLECYIQYHHSKIRNRGY	3.84
LYILHLLLECYIQYHHSKIRNRGY	1.25
LWALHLLLECYIQYHHSKIRNRGY	1.76
LWCLHLLLECYIQYHHSKIRNRGY	2.62
LWDLHLLLECYIQYHHSKIRNRGY	1.71
LWELHLLLECYIQYHHSKIRNRGY	1.68
LWGLHLLLECYIQYHHSKIRNRGY	1.37
LWHLHLLLECYIQYHHSKIRNRGY	2.09
LWKLHLLLECYIQYHHSKIRNRGY	2.31
LWLLHLLLECYIQYHHSKIRNRGY	3.4
LWMLHLLLECYIQYHHSKIRNRGY	1.35
LWNLHLLLECYIQYHHSKIRNRGY	2.2
LWQLHLLLECYIQYHHSKIRNRGY	1.37
LWRLHLLLECYIQYHHSKIRNRGY	1.74
LWSLHLLLECYIQYHHSKIRNRGY	2.32

Variant	protein stability index
LWTLHLLLECYIQYHHSKIRNRGY	2.34
LWVLHLLLECYIQYHHSKIRNRGY	2.65
LWWLHLLLECYIQYHHSKIRNRGY	1.61
LWYLHLLLECYIQYHHSKIRNRGY	1.62
LWIAHLLLECYIQYHHSKIRNRGY	4.26
LWICHLLLECYIQYHHSKIRNRGY	2.96
LWIFHLLLECYIQYHHSKIRNRGY	1.69
LWIHHLLLECYIQYHHSKIRNRGY	3.85
LWIIHLLLECYIQYHHSKIRNRGY	2.29
LWIKHLLLECYIQYHHSKIRNRGY	2.51
LWIMHLLLECYIQYHHSKIRNRGY	2.39
LWIPHLLLECYIQYHHSKIRNRGY	2.85
LWIRHLLLECYIQYHHSKIRNRGY	3.42
LWISHLLLECYIQYHHSKIRNRGY	3.7
LWITHLLLECYIQYHHSKIRNRGY	1.17
LWIVHLLLECYIQYHHSKIRNRGY	1.83
LWIYHLLLECYIQYHHSKIRNRGY	2.68
LWILCLLLECYIQYHHSKIRNRGY	1.66
LWILDLLLECYIQYHHSKIRNRGY	1.05
